Results on 10 molecules are retold here after patent publication US20240174755A1 (published 2024).

In general, Kd refers to the equilibrium constant for the complex coming apart. Low readings indicate higher affinity, high ones lower affinity.

For experiment [1], the target named is human PDGFR β ECD (U-protein Express, Utrecht) (human) (UniProt P09619). Description: dose response ELISA, PDGFR β ECD coated at 2 µg/ml, rabbit anti-VHH detection. For orientation: An ELISA detects its analyte on a solid surface through an enzyme-linked reagent.
Experiment [2] has as its target human PDGFR β on HEK293-PDGFR β cells (human) (UniProt P09619). Description: FACS, 1-10 nM VHH-HL488, 1 h. (In general: A flow cytometer gives signals particle by particle.)
Experiment [3] has the same target. Description: FACS dose response, 1 h at 37° C.
Experiment [4] shares this target. Put plainly: FACS dose response, dialyzed VHH-HL488 batch (data not shown).
Experiment [5] deals with T1, human EGFR/HER1/ErbB1 Protein (His Tag, Sino Biological; Cat. Number 10001-H08H) (human, UniProt P00533 25-645).
T1 construct: Bought; construct not described; not shown: His tag
Description: direct ELISA, EGFR coated, streptavidin-HRP detection. As to the method: (§1) 96-well maxisorp (Nunc) immunosorp plates were coated with 2 ug/ml of human PDGFRa (Sino Biological; Cat. Number; 10556-HCCH) or 2 ug/ml human EGFR/HER1/ErbB1 Protein (His Tag, Sino Biological; Cat. Number; 10001-H08H) in PBS, 100 ul per well, at 4C overnight. Wells were washed thrice in PBS. Unspecific binding sites were blocked in 4% BSA/PBS for 1 h at RT, followed by washing thrice in PBS. VHH-biotin conjugates, diluted at 0.01-100 nM in 1% BSA/PBS, were incubated for 1 h at RT, followed by washing thrice in PBS. Streptavidin-horseradish peroxidase (HRP; GeneTex) was diluted 1:40,000 in 1% BSA/PBS and was incubated for 1 h at RT. PDGFRa or EGFR was detected with positive control antibodies rabbit anti-human PDGFRa/CD140a Antibody, (Cat no: 10556-R065) or rabbit anti-human EGFR/HER1/ErbB1 (Catalog no: 10001-R021, both from Sino Biological) diluted in 1% BSA/PBS at 1:5000 and were incubated for 1 h at RT, shaking. Secondary HRP-conjugated anti-rabbit-antibody was diluted at 1:5000 in 1% BSA/PBS and was incubated for 1 h at RT, shaking. Wells were washed 6 times in PBS. o-Phenylenediamine dihydrochloride (OPD; Sigma-Aldrich) was used as HRP substrate at 0.4 mg/ml in 0.05 M phosphate-citrate buffer pH 5.0 with 0.03% sodium perborate (Sigma-Aldrich), prepared according to the manufacturer's recommendations, and was used in volume of 100 ul per well. Reaction was allowed to proceed for 30 min at RT in dark, and was stopped by adding 50 ul of 1.5 M HCl. Optical density was measured at 492 nm on a Synergy H1 microplate reader (BioTek).

Experiment [6] addresses T2, human PDGFRa (Sino Biological; Cat. Number 10556-HCCH) (human, UniProt P16234 24-524, limits assumed).
T2 construct: Bought; construct not described; also called PDGFRα
Put plainly: direct ELISA, PDGFRa coated, streptavidin-HRP detection. As to the method:
as §1
VHH-biotin binding to human PDGFRa was assessed using an ELISA, where wells were coated with PDGFRa, and VHH-biotin binding was detected using streptavidin-HRP with OPD as a substrate.

Experiment [7] has as its target human PDGFR β on HEK293-PDGFR β cells (human) (UniProt P09619). Description: time course on HEK293-PDGFRβ cells, plate reader.
Experiment [8] shares this target. Description: HEK293-PDGFRβ cells with 500 uM liposome, plate reader.
Experiment [9] shares this target. Put plainly: HEK293-PDGFRβ cells with 500 uM liposome on ice, plate reader.
Experiment [10] has the same target. Put plainly: HEK293-PDGFRβ cells with 500 uM liposome, plate reader (data not shown).
The target is the same in experiment [11]. Description: time course on HEK293-PDGFRβ cells, plate reader; not statistically significant.
For experiment [12] the target is unchanged. Description: cell binding on ice for 1 h, fluorescence plate reader.
Experiment [13] has as its target T3, human PDGFR β extra-cellular domain (ECD), Fc- and His-tagged (Sino Biological) (human, UniProt P09619 33-532).
T3 construct: extracellular domain; Bought; also called hECD; Fc/His-tagged PDGFR β ECD; not shown: Fc tag and His tag
Put plainly: SPR (Biacore 3000), Fc/His PDGFR β ECD captured on protein A; 1B5 construct not stated. As to the method: FIG. 11: VHH (flag-his-tagged, or conjugated with HL488, NOTA or 800 CW) binding to human extracellular domain (ECD) of PDGFR β assessed with surface plasmon resonance (SPR). Fc/His-tagged PDGFR β ECD was bound to protein A chemically conjugated to CM4 sensor chip. Binding of VHHs was tested at 0.39-50 nM. Shown are representative SPR Biacore traces of tagged or conjugated 1B5 VHH (panels A); tagged or conjugated 1D4 VHH (panels B); tagged or conjugated 1H4 VHH (panels C) or tagged VHH 1E12 (panel D).
SPR analysis was performed using the Biacore 3000 instrument (GE Healthcare). Protein A was chemically bound to a CM4 sensor chip (GE Healthcare) according to the primary amine procedure to approximately 2100 response units (RU). Fc/His-tagged PDGFR β ECD at 0.4-2.07 ng/ul was bound to protein A at flow rate of 35 ul/min. Run buffer HBS-EP (GE Healthcare; 0.01 M HEPES pH 7.4, 0.15 M NaCl, 3 mM EDTA, 0.005% v/v Surfactant P20) was used for VHHs 1D4, 1H4 and 1E12 conjugates at 50, 25, 12.5, 6.25, 3.13, 1.56, 0.78 and 0.39 nM. For 1B5 conjugates, HBS-EP+0.5 M NaSCN was as run buffer to reduce non-specific binding to a control path without PDGFR β ECD. A flow rate 70 ul/min was used for VHH injections in volumes of 150 ul. Regeneration of the sensor CM4 chip was performed by three successive injections of c. 30 s 10 mM glycine-HCl pH 2, 10 mM glycine-HCl pH 1.5, and 0.5 M NaSCN/10 mM NaOH.
For orientation: In SPR one partner is held on a chip, and binding of the other changes the refractive index at the surface.

Experiment [14] addresses human PDGFR β on HEK293-PDGFR β cells (human) (UniProt P09619). Description: FACS dose response, 1 h at 37° C. (MFI).

B1: QPD-1H4 (VHH)
VHH: EVQLVESGGGLVQPGGSLRVSCSASWRTGNPFAMAWFRQAPGKERELIARISWTAGRTEYAESAKGRFTISRDVAKKTMYLQMNSLTPEDTGVYFCAARFVPSSGPTVFDTWGQGTQVTVSS
As for B1, in experiment [1], the apparent affinity is under 1 nM.

B2: 1H4-HL488 (VHH, not shown: small tags and cut ends)
VHH: EVQLVESGGGLVQPGGSLRVSCSASWRTGNPFAMAWFRQAPGKERELIARISWTAGRTEYAESAKGRFTISRDVAKKTMYLQMNSLTPEDTGVYFCAARFVPSSGPTVFDTWGQGTQVTVSS
modifications: HiLyte Fluor 488-maleimide on the C-terminal cysteine of the C-Direct tag
As for B2, the MFI at 4° C. (binding) as percent of MFI at 37° C. (binding and uptake) in experiment [2] lay within 65 to 66%. Moreover, in experiment [3], the detection limit was 0.1 nM. In experiment [4], this molecule yielded a concentration at which detectable by FACS of 10 nM.

B3: 1H4-biotin (VHH)
VHH: EVQLVESGGGLVQPGGSLRVSCSASWRTGNPFAMAWFRQAPGKERELIARISWTAGRTEYAESAKGRFTISRDVAKKTMYLQMNSLTPEDTGVYFCAARFVPSSGPTVFDTWGQGTQVTVSS
modifications: Biotin-maleimide on the C-terminal cysteine of the C-Direct tag
notes: ID NO: 29 or 30; also called biotin-conjugated 1H4; VHH-biotin; not shown: C-terminal C-Direct tag with a free cysteine and an EPEA purification tag (vector pYQVQ11)
Turning to B3, the binding result in experiment [5] and in [6] was “no binding (tested: 0.01-100 nM)” throughout.

B4: 1D4-HL488 (VHH, not shown: small tags and cut ends)
VHH: EVQLVESGGGLVQAGDSLRLSCAVSGRAQSRDVVGWFRQAPGKEREFLALVTRSYSTYYGASVKGRFTISRDNAKNTVHLEMNSLKPEDTGVYYCAADQGFCSGSGCYDWRTFHVWGQGTQVTVSS
modifications: HiLyte Fluor 488-maleimide on the C-terminal cysteine of the C-Direct tag
B4 returned an MFI at 4° C. (binding) as percent of MFI at 37° C. (binding and uptake) in experiment [2] of 53 to 61%. In experiment [3], this molecule gave a detection limit of 0.1 nM. The same molecule had a concentration at which detectable by FACS in experiment [4] of 1 nM.

B5: 1D4-biotin (VHH)
VHH: EVQLVESGGGLVQAGDSLRLSCAVSGRAQSRDVVGWFRQAPGKEREFLALVTRSYSTYYGASVKGRFTISRDNAKNTVHLEMNSLKPEDTGVYYCAADQGFCSGSGCYDWRTFHVWGQGTQVTVSS
modifications: Biotin-maleimide on the C-terminal cysteine of the C-Direct tag
notes: ID NO: 27 or 28; also called biotin-conjugated 1D4; VHH-biotin; not shown: C-terminal C-Direct tag with a free cysteine and an EPEA purification tag (vector pYQVQ11)
Turning to B5, the binding result in experiment [5] and in experiment [6] was “no binding (tested: 0.01-100 nM)” each time.

B6: 1B5-liposome-100 (protein)
VHH: EVQLVESGGGLVQPGGSLRLSCVASGFSFSESAMSWVRQAPGKGLEWLSGISSGGGRSTTYAESVEGRFTISRDDAKNTLMLQMNSLKSEDTAVYYCAKTGYCSGYNCNFAPRGQGTQVTVSS
modifications: coupled to maleimide-PEG-DSPE and post-inserted into calcein/rhodamine PE liposomes; 100 nanobodies per liposome
Consider B6, for which, in experiment [7], the fold calcein fluorescence over liposome-0, 3 h (uptake) is 4.7 fold and the fold calcein fluorescence over liposome-0, 6 h (uptake) is 5.1 fold. Besides, in [8], the fold calcein fluorescence over non-targeted liposome-0, 37° C. (binding and uptake) was 3.4 fold. The fold calcein fluorescence over non-targeted control, on ice (binding) in experiment [9] is 1.8 fold. Further, the fold rhodamine PE signal, 37° C. in [10] amounted to 2.4 fold. In addition, in experiment [11], the fold calcein fluorescence over liposome-0, 0 h (binding and/or uptake) is 2.2 fold and the fold calcein fluorescence over liposome-0, 1 h (binding and/or uptake) is 2.8 fold.

B7: 1B5-HL488 (VHH, not shown: small tags and cut ends)
VHH: EVQLVESGGGLVQPGGSLRLSCVASGFSFSESAMSWVRQAPGKGLEWLSGISSGGGRSTTYAESVEGRFTISRDDAKNTLMLQMNSLKSEDTAVYYCAKTGYCSGYNCNFAPRGQGTQVTVSS
modifications: HiLyte Fluor 488-maleimide on the C-terminal cysteine of the C-Direct tag
B7: in experiment [2], the MFI at 4° C. (binding) as percent of MFI at 37° C. (binding and uptake) is 52 to 58%. The detection limit in [3] stood at 0.1 nM; in experiment [12], 1 nM. This molecule also yielded a concentration at which detectable by FACS in [4] of 1 nM.

B8: QPD-1B5 (VHH)
VHH: EVQLVESGGGLVQPGGSLRLSCVASGFSFSESAMSWVRQAPGKGLEWLSGISSGGGRSTTYAESVEGRFTISRDDAKNTLMLQMNSLKSEDTAVYYCAKTGYCSGYNCNFAPRGQGTQVTVSS
notes: Purified, unconjugated VHH; also called VHH 1B5
As to B8, the apparent affinity in [1] came to 1 nM. In experiment [13], this molecule came in with an equilibrium dissociation constant (Kd) of 4 to 5 pM.

B9: QPD-1E12 (VHH)
VHH: EVQLVESGGGLVQAGGSLRLSCAPSERSFSAYLMGWFRQAQGKEREFVAAWRWPTSTTYYSDSGKGRFTITGDNAKNTVELEMNSLKPEDTAVYYCAARRGILYGPATSPTAYDFWGQGTQVTVSS
As for B9, the apparent affinity in experiment [1] is 10 nM.

B10: 1E12-HL488 (VHH, not shown: small tags and cut ends)
VHH: EVQLVESGGGLVQAGGSLRLSCAPSERSFSAYLMGWFRQAQGKEREFVAAWRWPTSTTYYSDSGKGRFTITGDNAKNTVELEMNSLKPEDTAVYYCAARRGILYGPATSPTAYDFWGQGTQVTVSS
modifications: HiLyte Fluor 488-maleimide on the C-terminal cysteine of the C-Direct tag
Molecule B10 returned a lowest concentration detectably bound or taken up (percentage of HL488-positive population) in experiment [3] of 10 nM. Moreover, the detection limit in [14] was 100 nM.
